One block for each binder: values may come before it. Starred links: 1 amine or outer side, 2 acyl side, 3 side chain; linkers in the order of their positions; H or OH if unused. Positions of bridges follow the written chain, without caps; N, C: chain ends. Non-standard residues stand in square brackets, D forms with d. Primed or numbered codes have the meaning given here. PyrS2″ = (S)-3-amino-1-((pent-4-en-1-yloxy)carbonyl)pyrrolidine-3-carboxylic acid (stapling residue), C=CCCCOC(=O)N1CC[C@@](N[*:1])(C(=O)[*:2])C1; B5(24) = 2-amino-2-(pent-4-en-1-yl)hept-6-enoic acid, 2,2-bis(4-pentenyl)glycine (stitching residue), C=CCCCC(CCCC=C)(N[*:1])C(=O)[*:2]; B5(21) = 2-amino-2-(pent-4-en-1-yl)hept-6-enoic acid, bis(4-pentenyl)glycine (stitching residue), C=CCCCC(CCCC=C)(N[*:1])C(=O)[*:2]; B5(3) = 2,2-bis(4-pentenyl)glycine (stitching residue), C=CCCCC(CCCC=C)(N[*:1])C(=O)[*:2]; Phe(2-OMe) = COc1ccccc1C[C@H](N)C(=O)O; Bta = N[C@@H](Cc1csc2ccccc12)C(=O)O; αAllylPro = C=CC[C@@]1(C(=O)O)CCCN1; tBuAla = CC(C)(C)C[C@H](N)C(=O)O; 3Thi = N[C@@H](Cc1ccsc1)C(=O)O; S8 = C=CCCCCCC[C@](C)(N)C(=O)O
Legend:
[1] = molecular target: T1, B-cat-Halo (beta-catenin HaloTag NanoBRET construct expressed in HEK293 cells) (UniProt P35222 1-781); assay: cell-based or functional assay
T1 sequence (looked up): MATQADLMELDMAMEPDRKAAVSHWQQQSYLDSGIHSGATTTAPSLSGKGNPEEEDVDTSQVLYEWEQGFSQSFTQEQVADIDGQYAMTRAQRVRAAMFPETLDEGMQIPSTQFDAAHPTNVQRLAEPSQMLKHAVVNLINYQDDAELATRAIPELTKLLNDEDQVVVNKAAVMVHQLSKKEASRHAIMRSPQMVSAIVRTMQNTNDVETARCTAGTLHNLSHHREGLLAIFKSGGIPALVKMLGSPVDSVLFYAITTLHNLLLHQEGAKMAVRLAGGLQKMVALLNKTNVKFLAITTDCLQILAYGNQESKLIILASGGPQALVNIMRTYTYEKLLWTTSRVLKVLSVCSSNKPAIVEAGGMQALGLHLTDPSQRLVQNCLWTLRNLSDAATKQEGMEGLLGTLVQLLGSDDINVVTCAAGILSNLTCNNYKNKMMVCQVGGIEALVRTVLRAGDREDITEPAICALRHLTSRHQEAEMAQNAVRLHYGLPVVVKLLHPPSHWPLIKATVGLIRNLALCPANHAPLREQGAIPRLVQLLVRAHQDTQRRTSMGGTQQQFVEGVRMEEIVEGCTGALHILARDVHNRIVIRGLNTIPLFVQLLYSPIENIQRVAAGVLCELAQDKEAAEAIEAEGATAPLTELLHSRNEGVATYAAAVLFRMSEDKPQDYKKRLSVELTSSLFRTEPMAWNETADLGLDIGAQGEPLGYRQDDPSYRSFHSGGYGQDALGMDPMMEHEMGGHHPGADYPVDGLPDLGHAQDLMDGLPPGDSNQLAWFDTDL

[2] = molecular target: T2, B-cat-Halo (UniProt P35222 1-781); assay: cell-based or functional assay
T2 sequence (looked up): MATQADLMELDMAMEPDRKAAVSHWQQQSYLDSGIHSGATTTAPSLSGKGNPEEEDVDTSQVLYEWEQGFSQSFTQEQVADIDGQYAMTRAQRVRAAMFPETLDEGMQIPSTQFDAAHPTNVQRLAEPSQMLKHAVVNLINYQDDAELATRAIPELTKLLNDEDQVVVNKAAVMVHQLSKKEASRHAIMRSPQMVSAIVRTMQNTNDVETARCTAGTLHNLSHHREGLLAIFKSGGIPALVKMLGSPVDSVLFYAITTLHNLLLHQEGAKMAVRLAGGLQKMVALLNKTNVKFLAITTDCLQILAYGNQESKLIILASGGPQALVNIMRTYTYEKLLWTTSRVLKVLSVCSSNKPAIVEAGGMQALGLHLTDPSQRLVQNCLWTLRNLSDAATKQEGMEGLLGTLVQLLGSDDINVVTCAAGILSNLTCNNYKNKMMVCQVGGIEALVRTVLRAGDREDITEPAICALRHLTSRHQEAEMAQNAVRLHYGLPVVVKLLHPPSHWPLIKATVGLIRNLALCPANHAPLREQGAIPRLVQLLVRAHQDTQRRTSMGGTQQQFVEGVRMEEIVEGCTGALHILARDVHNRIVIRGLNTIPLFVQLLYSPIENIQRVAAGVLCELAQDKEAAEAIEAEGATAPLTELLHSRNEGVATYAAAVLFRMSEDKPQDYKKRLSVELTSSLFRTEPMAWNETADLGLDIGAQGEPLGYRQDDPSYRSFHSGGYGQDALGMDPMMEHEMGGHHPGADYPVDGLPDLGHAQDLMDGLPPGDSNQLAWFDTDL

[3] = molecular target: T3, full-length beta-Catenin (Uniprot ID P35222) (Homo sapiens (Human), UniProt P35222 1-781); assay: fluorescence polarization competition; peptide titrated against 10 nM full-length beta-catenin + 10 nM 5FAM-TCF4(10-53) probe
T3 construct: The assay text says 'full-length'; also called bCat; B-Catenin
T3 sequence: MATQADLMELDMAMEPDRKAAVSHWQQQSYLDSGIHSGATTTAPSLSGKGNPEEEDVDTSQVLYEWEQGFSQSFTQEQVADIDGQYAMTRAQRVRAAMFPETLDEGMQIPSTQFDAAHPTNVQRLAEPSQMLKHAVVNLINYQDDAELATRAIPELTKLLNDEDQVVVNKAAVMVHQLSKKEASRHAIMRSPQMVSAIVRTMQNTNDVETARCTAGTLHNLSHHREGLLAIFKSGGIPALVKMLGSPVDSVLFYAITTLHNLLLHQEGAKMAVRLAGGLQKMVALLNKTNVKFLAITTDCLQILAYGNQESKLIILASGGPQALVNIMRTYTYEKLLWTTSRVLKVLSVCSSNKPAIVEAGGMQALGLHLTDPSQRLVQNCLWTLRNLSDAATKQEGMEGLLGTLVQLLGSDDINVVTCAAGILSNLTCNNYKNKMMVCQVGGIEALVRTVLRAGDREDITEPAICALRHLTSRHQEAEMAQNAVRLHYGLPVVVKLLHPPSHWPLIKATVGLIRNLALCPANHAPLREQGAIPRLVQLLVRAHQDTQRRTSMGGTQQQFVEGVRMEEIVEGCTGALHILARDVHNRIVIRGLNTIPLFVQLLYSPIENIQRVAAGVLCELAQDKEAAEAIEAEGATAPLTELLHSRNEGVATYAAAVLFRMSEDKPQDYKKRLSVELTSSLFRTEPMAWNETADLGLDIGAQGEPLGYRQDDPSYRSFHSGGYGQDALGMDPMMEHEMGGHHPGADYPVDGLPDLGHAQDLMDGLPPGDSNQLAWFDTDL
Protocol: The plate was incubated protected from light for 60 minutes at 20° C. prior to read. Reads were performed on a CLARIOstar plate reader (BMG Labtech) in duplicate, and data were fitted to a 1:1 binding model with hill slope using an in-house script. All provided concentrations are final concentrations.

[4] = molecular target: T4, beta-catenin in DLD1 TCF/LEF luciferase reporter cells (UniProt P35222 1-781); assay: cell-based or functional assay
T4 sequence (looked up): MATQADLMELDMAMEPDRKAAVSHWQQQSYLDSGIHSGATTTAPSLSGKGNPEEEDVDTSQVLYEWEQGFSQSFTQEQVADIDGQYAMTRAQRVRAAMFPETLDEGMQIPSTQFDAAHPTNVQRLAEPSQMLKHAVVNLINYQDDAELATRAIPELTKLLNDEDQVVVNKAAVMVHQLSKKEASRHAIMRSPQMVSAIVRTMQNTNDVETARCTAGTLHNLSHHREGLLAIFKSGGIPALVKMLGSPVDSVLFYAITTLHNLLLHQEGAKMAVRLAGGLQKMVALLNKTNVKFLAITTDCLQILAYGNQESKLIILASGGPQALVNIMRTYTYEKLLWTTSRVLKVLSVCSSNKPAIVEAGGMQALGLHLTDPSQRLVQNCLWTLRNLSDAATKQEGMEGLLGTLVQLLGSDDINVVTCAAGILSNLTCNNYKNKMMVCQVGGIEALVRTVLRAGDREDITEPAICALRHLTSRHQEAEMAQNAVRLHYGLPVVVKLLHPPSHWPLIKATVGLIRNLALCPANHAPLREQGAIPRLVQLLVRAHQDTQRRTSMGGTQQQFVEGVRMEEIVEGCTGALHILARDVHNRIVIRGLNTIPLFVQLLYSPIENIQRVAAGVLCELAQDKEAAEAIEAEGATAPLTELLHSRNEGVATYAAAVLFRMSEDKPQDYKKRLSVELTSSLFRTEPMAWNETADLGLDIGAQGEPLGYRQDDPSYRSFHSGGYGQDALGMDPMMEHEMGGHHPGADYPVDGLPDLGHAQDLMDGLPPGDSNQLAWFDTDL

- NanoBRET Abs IC50 [1]: > 20 µM
Binder: Ac-[αAllylPro]DA[B5(21)]DEAAFN[PyrS2″]F[Bta]Q-NH2 (staple 1-4, 4-11) [I-462]

- NanoBRET Abs IC50 [2]: 17.5 µM
- IC50 [3]: 0.026 µM
Binder: Ac-[αAllylPro]DA[B5(24)]DEAAFN[S8][Phe(2-OMe)][Bta]Q-NH2 (staple 1-4, 4-11, Stapled peptide composition) [I-437]

- DLD1 reporter assay Abs IC50 [4]: 3.4 µM
Binder: Ac-[αAllylPro]D[tBuAla][B5(3)]DDAAFF[PyrS2″][3Thi][Bta]Q-NH2 (staple 1-4, 4-11) [I-807]
